Results on nine molecules are retold here after patent publication US20230029453A1.

The target in one assay is HLA-A*24:02 (human). The experiment in a line: UV peptide exchange; HLA class I ELISA. Particulars: remark: other sources report otherwise.
With FLFLLLPLS (here or on the partner: biotinylated heavy chain) [P87 9-mer … (AR-Intron)], the exchange rate with Pos was 0.2%.
The same measure, in the same setting: the result for LMAQRLLLR (here or on the partner: biotinylated heavy chain) [P97 9-mer … (FOXRED2-TXN2 fusion)] reads 0.1%; that for LLERNSFEV (here or on the partner: biotinylated heavy chain) [P73 9-mer … (TP53 G266E)], 0.5%; that for HVPKILSGK (here or on the partner: biotinylated heavy chain) [P58 9-mer … (AR Q903H)], 0.2%.
Still for that read-out and setting: the result for IVWWCPMSR (here or on the partner: biotinylated heavy chain) [P98 9-mer … (TP53 R213D frameshift)] reads -0.1%; that for YLRRQKRLK (here or on the partner: biotinylated heavy chain) [P60 9-mer … (FOXA1.p.F266L)], 0.9%.
The same measure, in the same setting: the result for YQFTFDLLI (here or on the partner: biotinylated heavy chain) [P48 9-mer … (AR.p.H875Y)] reads 0.1%.

In the next assay the target is HLA-A*02:01 (human). The experiment in a line: UV peptide exchange; HLA class I ELISA. The note with it: remark: other sources report otherwise.
In the case of FLFLLLPLS (here or on the partner: biotinylated heavy chain) [P87 9-mer … (AR-Intron)], the exchange rate with Pos amounted to 64%.
On the same count and under the same terms, the result for LMAQRLLLR (here or on the partner: biotinylated heavy chain) [P97 9-mer … (FOXRED2-TXN2 fusion)] reads 4.6%; that for LLERNSFEV (here or on the partner: biotinylated heavy chain) [P73 9-mer … (TP53 G266E)], 89.2%.
Still for that read-out and setting: the result for HVPKILSGK (here or on the partner: biotinylated heavy chain) [P58 9-mer … (AR Q903H)] reads 11.8%; that for IVWWCPMSR (here or on the partner: biotinylated heavy chain) [P98 9-mer … (TP53 R213D frameshift)], 7.9%; that for YLRRQKRLK (here or on the partner: biotinylated heavy chain) [P60 9-mer … (FOXA1.p.F266L)], 7.9%.
On the same count and under the same terms, in the case of YQFTFDLLI (here or on the partner: biotinylated heavy chain) [P48 9-mer … (AR.p.H875Y)] it was 99.3%.

The target in another assay is HLA-B*08:01 (human). The assay can be described thus: UV peptide exchange; HLA class I ELISA. The note with it: remark: other sources report otherwise.
In the case of FLFLLLPLS (here or on the partner: biotinylated heavy chain) [P87 9-mer … (AR-Intron)], the exchange rate with Pos was 3.1%.
Regarding LMAQRLLLR (here or on the partner: biotinylated heavy chain) [P97 9-mer … (FOXRED2-TXN2 fusion)], the exchange rate with Pos turned out to be 2.7%.
Same read-out and setting: in the case of LLERNSFEV (here or on the partner: biotinylated heavy chain) [P73 9-mer … (TP53 G266E)] it was 2.6%; in that of HVPKILSGK (here or on the partner: biotinylated heavy chain) [P58 9-mer … (AR Q903H)], 5.3%; in that of IVWWCPMSR (here or on the partner: biotinylated heavy chain) [P98 9-mer … (TP53 R213D frameshift)], 2.4%.
Turning to YLRRQKRLK (here or on the partner: biotinylated heavy chain) [P60 9-mer … (FOXA1.p.F266L)], the exchange rate with Pos is 10.2%.

In a further assay the target is HLA-A*03:01 (human). The assay can be described thus: UV peptide exchange; HLA class I ELISA. Particulars: remark: other sources report otherwise.
Take FLFLLLPLS (here or on the partner: biotinylated heavy chain) [P87 9-mer … (AR-Intron)]: the exchange rate with Pos came to 2.4%.
Still for that read-out and setting: in the case of LMAQRLLLR (here or on the partner: biotinylated heavy chain) [P97 9-mer … (FOXRED2-TXN2 fusion)] it was 39%; in that of LLERNSFEV (here or on the partner: biotinylated heavy chain) [P73 9-mer … (TP53 G266E)], 3.5%.
Still for that read-out and setting: the result for HVPKILSGK (here or on the partner: biotinylated heavy chain) [P58 9-mer … (AR Q903H)] reads 32.5%; that for IVWWCPMSR (here or on the partner: biotinylated heavy chain) [P98 9-mer … (TP53 R213D frameshift)], 51.1%.
The same measure, in the same setting: the result for YLRRQKRLK (here or on the partner: biotinylated heavy chain) [P60 9-mer … (FOXA1.p.F266L)] reads 36.6%.
On to YQFTFDLLI (here or on the partner: biotinylated heavy chain) [P48 9-mer … (AR.p.H875Y)], for which the exchange rate with Pos was found to be 4.4%.

The target in another assay is HLA-B*07:02 (human). The experiment in a line: UV peptide exchange; HLA class I ELISA. The note with it: remark: other sources report otherwise.
In turn, LIYRRRLMK (modifications not checked) had an Average % of 13.7%, an Exch I (%) of 13% and an Exch II (%) of 14.3%.
In the case of FLFLLLPLS (here or on the partner: biotinylated heavy chain) [P87 9-mer … (AR-Intron)], the exchange rate with Pos was 5%.
On the same count and under the same terms, in the case of LMAQRLLLR (here or on the partner: biotinylated heavy chain) [P97 9-mer … (FOXRED2-TXN2 fusion)] it was 7%.
Same read-out and setting: the result for LLERNSFEV (here or on the partner: biotinylated heavy chain) [P73 9-mer … (TP53 G266E)] reads 8.7%; that for IVWWCPMSR (here or on the partner: biotinylated heavy chain) [P98 9-mer … (TP53 R213D frameshift)], 6.7%; that for YLRRQKRLK (here or on the partner: biotinylated heavy chain) [P60 9-mer … (FOXA1.p.F266L)], 6.1%.
On the same count and under the same terms, the result for YQFTFDLLI (here or on the partner: biotinylated heavy chain) [P48 9-mer … (AR.p.H875Y)] reads 12.8%.

The target of another assay is HLA-A*01:01 (human). The experiment in a line: UV peptide exchange; HLA class I ELISA. Particulars: remark: other sources report otherwise.
On to FLFLLLPLS (here or on the partner: biotinylated heavy chain) [P87 9-mer … (AR-Intron)], for which the exchange rate with Pos was 1.1%.
As for LMAQRLLLR (here or on the partner: biotinylated heavy chain) [P97 9-mer … (FOXRED2-TXN2 fusion)], the exchange rate with Pos came out at 2.5%.
The same measure, in the same setting: in the case of HVPKILSGK (here or on the partner: biotinylated heavy chain) [P58 9-mer … (AR Q903H)] it was 2.5%; in that of IVWWCPMSR (here or on the partner: biotinylated heavy chain) [P98 9-mer … (TP53 R213D frameshift)], 2.5%; in that of YLRRQKRLK (here or on the partner: biotinylated heavy chain) [P60 9-mer … (FOXA1.p.F266L)], 3.1%.
On to NPKASLLSL (modifications not checked), for which the Average % came out at 6.5%, the Exch I (%) was determined as 7.4% and the Exch II (%) was determined as 5.6%.
For YQFTFDLLI (here or on the partner: biotinylated heavy chain) [P48 9-mer … (AR.p.H875Y)], the exchange rate with Pos was 4.3%.
